The supplement of paper PMC9170038

System: MS2 coat protein
Assay: apparent KD of MS2 coat protein; designed switch direction (-1 OFF switch, 1 ON switch): -1; higher = weaker reporter binding
How it was run: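 The reported apparent KD is a per-design median over clusters, from curve fits of normalised cluster fluorescence. Protein titrations used SNAP-549-labelled MS2 coat protein, doubled from 0.7 or 1.5 nM to 3 µM, in Tris-HCl pH 7.5 buffer with KCl, MgCl2, BSA, DTT, tRNA and Tween-20, with no input, 200 uM small-molecule ligand, or an oligonucleotide input. The RNA switches were transcribed on Illumina chips by stalled E. coli RNA polymerase.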

[1] = input ligand: microRNA oligo, concentration not stated
[2] = Eterna round: R95, input ligand: microRNA oligo, concentration not stated
[3] = Eterna round: R95, input ligand: FMN 200 uM
[4] = Eterna round: R95, input ligand: none

Sequence	apparent KD of MS2 coat protein (input ligand: FMN 200 uM) [nM]	apparent KD of MS2 coat protein (input ligand: none) [nM]	apparent KD of MS2 coat protein [1] [nM]	further results
GUCAAACAUGAGGAUCACCCAUGUGAGGAUAUUUAGGAUAGGAUAUGACUACUACUCCGAAGAAGGCACUCGGG [Eternabot (L1) Solution 7] (Eterna round: R97, puzzle: Exclusion 1)	102	38.5		
GCUAGAGCAGGAUAUCUAAAUCCUCACAUGAGGAUCACCCAUGUAGUCGAAAGACUAAGAAGAGAAGGGCUCUAGC [Omei Ex5 E19] (Eterna round: R97, puzzle: Exclusion 5)	543	1290		
GACUGCCGAGGAUAUACAUGAGGAUCACCCAUGUGCUUCAGUAUCGAAAGAUGCAUGGGUAGAAGGCGGUAGUC [LRO-Excl3-10] (Eterna round: R96, puzzle: Exclusion 3)	912	1410	627	
CACCUGAAGACAGGAUAUCAUACAUGAGGAUCACCCAUGUAAUAAAUGAGAAUUUCGAAUGUAAUUGAGAAGGGUCGAUAAGGC [Ostricism 91 - Jieux - Exclusion NG 2] (Eterna round: R96, puzzle: Exclusion NG 2)	78.9	30.6	30.6	
UCACGGGAUUGAGGAUAUAUAUUAAUUUUUACAAUAGAAGGCAAAUUGUUAGUUUUUUCACUUUACAUGAGGAUCACCCAUGUU [JR_ExcBG1_Sub080] (Eterna round: R96, puzzle: Exclusion NG 1)			19.6	
AGUGUGUGGCAGGAUAUGCAAUUAAUAGGUGAAGCAGAAGGGUCUACAUGAGGAUCACCCAUGUGUGCGGUUGA [Ex6 #22] (Eterna round: R97, puzzle: Exclusion 6)	154	139		
CCAGGCUGUGUGAGGAUAUGCUGGUCCUUGGAUCAGCAGAAGGCACAUGAGGAUCACCCAUGUGAAAAGCUUGG [Mat - Exclusion 4 - JL Mod - D91] (puzzle: Brourd's mod of Exclusion 4)				apparent KD of MS2 coat protein [2]: 16.2 nM
CCAUGUUAGCAGGAUAUGCUAUUAAUCUUUUAUGCAGAAGGGCUUACAUGAGGAUCACCCAUGUAUUAAGUCUU [JR_E6_Sub076] (puzzle: Exclusion 6)				apparent KD of MS2 coat protein [2]: 11.9 nM
AUAAUGUGAGGAUAUCAGUCGACUAGCCUCGGCUAGUCGACUGAGAAGGUACAUGAGGAUCACCCAUGUAGAUC [E4/20-A2] (Eterna round: R97, puzzle: Exclusion 4)	84.3	26.4		
AAGAUGUCAGGAUAUUAGUAGUAAAUAAAUAAAAUUAUUACUGAGAAGGGACAUGAGGAUCACCCAUGUGCCUU [Salish 062 v10] (Eterna round: R97, puzzle: Exclusion 4)	16.4	16.9		
UUUUAACAUGAGGAUCACCCAUGUAAGGAUAUGCUAUUUUUUUUUUUUUUUUUUUUUUGCAGAAGGUACAUUUU [My solution] (puzzle: Exclusion 1)				apparent KD of MS2 coat protein [3]: 33.8 nM; apparent KD of MS2 coat protein [2]: 21.3 nM; apparent KD of MS2 coat protein [4]: 21.6 nM
UAAAUUAUAGUAAGGAUAUCAGUCGCGAAAGUGGCUGAGAAGGUACAUGAGGAUCACCCAUGUGAAAUAAGAAU [Mod of Zala 17 - Jieux - Brourd's Mod of Exclusion 4] (Eterna round: R97, puzzle: Brourd's mod of Exclusion 4)	25.7	20		
ACGACUGGAGGAUAUGCUCUGGGAGCGAUCGUAUAAGCAGUACUUGAGGAUCACCCAAGUAGAAGGUCAGCUCG [Riorus] (Eterna round: R97, puzzle: Exclusion 2)	140	37.6		
GUAGUGACUCGAGGAUAUCCCGACUCCUGGUCAGGAGAAGGCGACGUCAUAGCACAUGAGGAUCACCCAUGUCUUACACAUACG [Eternabot solution 32] (Eterna round: R96, puzzle: Exclusion NG 1)	25.6	23.9	19.5	
ACAUUGCGAGGAUAUACAUGAGGAUCACCCAUGUGGUAGUGGAUACGGUAGGGCUAGUGUAGAAGGUGUUAUGA [EX3 #15] (Eterna round: R97, puzzle: Exclusion 3)	98.8	132		
GUAGAGUAAGGAUAUGGAGAAUAGGAUAGAAUGGUUAGAAUCUAGAAGGUACAUGAGGAUCACCCAUGUAAUGU [Excluse me!!!! 9 - Jieux - Exclusion 4] (puzzle: Exclusion 4)				apparent KD of MS2 coat protein [2]: 21.2 nM
AAUAAGAAGUAAGGAUAUCUGAAAGGAAGUGUAAGAGAAGGUACGGUGACGUCAGAACGACAUGAGGAUCACCCAUGUAAAGAA [PowerStrip EXNG 1.11] (Eterna round: R96, puzzle: Exclusion NG 1)	79	93.9	69.6	

Sequence	apparent KD of MS2 coat protein (input ligand: FMN 200 uM) [nM]	apparent KD of MS2 coat protein (input ligand: none) [nM]	apparent KD of MS2 coat protein [1] [nM]	further results
GGUCGUAUGAGUAGUCCUCAUUGAAGAGAUUGGUAAGAUACAUGAGGAUCACCCAUGUUUGAACAAGCUUUUGCUCU [JR_Sv3TOV2_Sub008] (Eterna round: R96, puzzle: Sensor v3, turn-off variant 2)	159	118	54.3	
GUAGGGUCAGGAUAUACUGGCUGAGGGAUGUAUUGUAGUUGGUAGAAGGGACAUGAGGAUCACCCAUGUAAGUA [JR_Exclu4_Sub057] (puzzle: Exclusion 4)				apparent KD of MS2 coat protein [2]: 33.2 nM
UGAGCAACAGGAUAUAUAUGGCGACCGUGAGGUCGAAGGUUACAUGAGGAUCACCCAUGUAGAAGGGUUGUUCU [Mat - Exclusion 2 - JL Mod - D16] (Eterna round: R97, puzzle: Exclusion 2)	279	102		
UUAUACAAGCAAAGAUCCCACAUGAGGAUCACCCAUGUGCUCGUCUUAUAAGGUACUGUGACGAAAGUCACGGUACC [Eli 87 + Mat D67 6] (Eterna round: R97, puzzle: Sensor, turn-off variant 1)	42.3	41.6		
UAUAUAUAGUAAGGAUAUGUAUUAAUUUUAUUAACAGAAGGUACUGACAUGAGGAUCACCCAUGUUUUAGUGUGGGCAUGUAGA [JMF's solution 90] (Eterna round: R96, puzzle: Exclusion NG 1)			69.4	
CUAAAUCAUGUAGGAUAUGCGUGGCAAAGCUAUGCAGAAGGACAUGAGGAUCACCCAUGUCAUUCCGUCUGAGAACAGACGGGA [Mat - Exclusion NG 1 - Mod of JL - D51] (Eterna round: R96, puzzle: Exclusion NG 1)	172	22.1	17.1	
GGAUCGAGUGUGAGGAUAUACCACUGGAUACAGUGGUAGAAGGCACAUGAGGAUCACCCAUGUCUCUACGAUCC [Fiskers BMX 4 - 44] (puzzle: Brourd's mod of Exclusion 4)				apparent KD of MS2 coat protein [2]: 16.3 nM
AGUAAUUCAAGAGGAUAUCACAUGAGGAUCACCCAUGUAUAGCGCGCUACGCUAGUCCUCGUAUUUGAGAAGGUUUGAUAAAUG [JL ViennaUCT Quve mod 1] (Eterna round: R96, puzzle: Exclusion NG 2)	14.4	17.1	12.5	
UAUAUAUAGUAAGGAUAUGUAUAUAUUCUAUAAACAGAAGGUACUGACAUGAGGAUCACCCAUGUUUUAGUGUGGGCAUGUAGA [JMF's solution 62] (Eterna round: R96, puzzle: Exclusion NG 1)			27.4	
CUCCGGCGUGUAGGAUAUGGAUCCGAUUAGGAUCCAGAAGGACAUGAGGAUCACCCAUGUACAUGUAAACAGUCAUCACCGGAC [salish99_ExNG1_r04_204] (Eterna round: R96, puzzle: Exclusion NG 1)	155	18.7	10.4	
UAAAAUAGUGUGAGGAUAUGCUGGUCCUUGGAUCAGCAGAAGGCACAUGAGGAUCACCCAUGUAGAUAAUAAUA [Mat - Exclusion 4 - JL Mod - D26] (puzzle: Brourd's mod of Exclusion 4)				apparent KD of MS2 coat protein [3]: 189 nM; apparent KD of MS2 coat protein [2]: 49.6 nM; apparent KD of MS2 coat protein [4]: 78 nM
UUAAUAAUGUAAGGAUAUGCGUGGCGAAGCUAUGCAGAAGGUACAUGAGGAUCACCCAUGUGGUCCGUCUGCGUACAGAUGGAA [JL Eng1 1.08 mod] (Eterna round: R96, puzzle: Exclusion NG 1)	756	365	319	
AAUUAACAUCAGGAUAUGACUAGCCUCGGCUAGUCAGAAGGGAUGACAUGAGGAUCACCCAUGUGAUCAAUUAA [E6/2-A2] (Eterna round: R97, puzzle: Exclusion 6)	392	108		
AUAAGUGAUAAGGAUAUUACUAGCCUCGGCUAGUGAGAAGGUAUCACAUGAGGAUCACCCAUGUGUUCCAAUAA [Ex6/7-B2] (Eterna round: R97, puzzle: Exclusion 6)	297	119		
GGUGCGUUUGUGAGGAUAUGCUGGUCCUUGGAUCAGCAGAAGGCACAUGAGGAUCACCCAUGUGGUGUCCCUCC [salish99_Bmod_Ex4_040] (puzzle: Brourd's mod of Exclusion 4)				apparent KD of MS2 coat protein [2]: 154 nM
UUUUAACAUGAGGAUCACCCAUGUGAGGAUAUCGAAAUUUAUAUUAAUAUUUAUAAAUCGAGAAGGCACAUUUU [JMF 52] (puzzle: Exclusion 1)				apparent KD of MS2 coat protein [2]: 139 nM
AGCUGUGGCCGAGGAUAUCCACAUGAGGAUCACCCAUGUCGAUACCAGCGUAAGCUGGAUAUAAGGGAGAAGGCGGUCUCAGCA [Eli eng2 - 053] (Eterna round: R96, puzzle: Exclusion NG 2)	6.2	10.5	6.51	
